Measured values from paper PMC10526015.

Legend:
[1] = target: FcγR on THP-1 cells (FcγRI and FcγRII); assay: flow cytometry on cells; THP-1 cells, 100 nM uncomplexed IgG, 30 min on ice, PBSF; goat anti-human IgG R-PE; median fluorescence intensity
[2] = target: FcγR on THP-1 cells (FcγRI and FcγRII); assay: as above; remark: listed apart in the source
[3] = target: FcγR on THP-1 cells (FcγRI and FcγRII); assay: flow cytometry on cells; THP-1 cells; ~100 nM IgG pre-complexed with 10 nM CD3ε-BSA (CD3ε peptide 21–47 on BSA) 20 min RT, highly avid; 30 min on ice; goat anti-human IgG PE; median fluorescence intensity

Row | Substance | MFI [1] [MFI] | MFI [2] [MFI] | MFI [3] [MFI]
1 | ADI-26906 IgG1 L234A/L235A/G237A (antibody) | 150 |  | 
2 | ADI-26906 IgG1 L234A/L235E (antibody) | 192 | 127 | 5300
3 | ADI-26906 IgG1 L234E/L235K (antibody) | 176 |  | 
4 | ADI-26906 IgG1 L235A/G237A (antibody) | 192 |  | 
5 | ADI-26906 IgG1 LALA-A330S/P331S (L234A/L235A/A330S/P331S) (antibody) |  |  | 3840
6 | ADI-26906 IgG1 LALA-D270A (L234A/L235A/D270A) (antibody) |  |  | 2270

Continued, values first:

Row | MFI [1] [MFI] | MFI [2] [MFI] | MFI [3] [MFI] | Substance
7 | 184 |  |  | ADI-26906 IgG1 L234A/G237A (antibody)
8 | 491 | 270 | 5270 | ADI-26906 IgG1 L234A/L235A (antibody)
9 | 140 |  |  | ADI-26906 IgG1 L234A/L235K (antibody)
10 | 369 |  |  | ADI-26906 IgG1 L234F/L235E (antibody)
11 | 386 |  |  | ADI-26906 IgG1 L234F/L235K (antibody)
12 |  |  | 7010 | ADI-26906 IgG1 LALA-A327G (L234A/L235A/A327G) (antibody)
13 |  |  | 4440 | ADI-26906 IgG1 LALA-A330S (L234A/L235A/A330S) (antibody)
14 |  |  | 4800 | ADI-26906 IgG1 LALA-H268Q (L234A/L235A/H268Q) (antibody)
15 |  |  | 4390 | ADI-26906 IgG1 LALA-K322A (L234A/L235A/K322A) (antibody)
